Assay results: the DeepSol protein solubility set

Assay: soluble on expression in E. coli; label from the status in PepcDB or PDB records

| Sequence | soluble on expression in E. coli |
| --- | --- |
| MGLKIGDIVSRKSYGSDILFKVVDIKYEKGRKIVVLKGICYRLEADAPETDLIVQPDSYVREYNARVNRAINEKLKSLNESLMREKTKKKFFRDAAKENNENFPRPGKVLHVDGDSDYLDTCMEEYRKLGMDAVGVYVKEKEQPLKIYNLLKEHKPDILVLTGHDGVIKSEKGYSDITNYRNSKYFVEAVREARRFDGNLDSLVIFAGACQSMFKKIIEAGANFASSPYRVLIHALDPVMVCEKIAFTSINQVISPQDVISKTITGVKGIGGIETRGKYRDGFPREPYNIK | soluble |
| MGSDKIHHHHHHMLITFNFEVHQPHRLNKEINQNGNTLWEKYVDTKLNKEVFNKVANKCYIPTNELILELIDEYDFKVNYSITGVFVEQALEFNDYVLDLFKDLVKTGNVELIAETYHHSLTSLFETEDEFIEDIEMHRKMYKEIFGFKAKVFRNTELIYNNRIAKIAKDLGFKAIFTEGIEKILGWRSPNYLYQSPDGMKILLRNYRLSDDIGFRFSARDWDQYPLTADKYAIWLASTPGEVINIYMDYETFGEHHWKETGIFEFLRYLPIEIAKHEHLEVVNVSEVVDRLEPRGEIYVHEFATISWADTERDVSAWLGNKMQRISFEKLKDIGKFIKENSNKLKKLNKFDEIYKMYKVLQTSDNLYYQSIKGLSDMSVHNYFSHFDTPFDAYASYLNILYDFEYYIKELLAKSEFDKNNRRKDGQKQYEKDDEVKKESLINTNIIVAKDDKTESIYIEDEEGKKNKRYERDEGFIIA | not soluble |
| MKTPAILLLLFLFMMSLAQSDEEQSGKEPPEKDDVLVILAEDNSTLLNNNQTMYDPSSEEKESDKPKFNLLETYLPLFIFVLDLPTEDRETLKAYVKDKTYEKLKYVIDSKVKMNRNEKNVLGRINESLVQSIDNLEHFDEITVDVVNGYHNASVYNAIRSVWLKQLRPFLPLIDQMAIQQKSSETEKMSIWARLWENLSVWMYGKKKLNECYAMEPKCVRHALELLNFEQRIDLDLAAYENKFDSVDGIIRERLGENRKSSELDEWLHRNRPPKALQAILDERSDIEEEALQRLRDNGVLSSLKHYYKAVIESRSHEEQEDIRHFFDIMNDTFARCFDPLRGQYHDF | not soluble |
| GTKMEPMEYLVVDVPSEFQGAIIEKMGPRKGEMTSLQPMGETVRLEFVVPARGLIGLRGELLTETRGTAVMTHTFHDYAPYKGDIPGRKNGVLIAMELGETTAYALDALQPRGILFIGPGVEVYGGMI | not soluble |
| MGSDKIHHHHHHGYQFTDVVKVPATPVKNQASTGTCWCFATTSFMESELLRMGKGTYDLSEMFIVRQKYMNQLQDNYVRQGRGNIGQGSLSHTFMNAFNQVGIVPEEVYSGINYDSDRHNHAEMVKYIKAIATTAVDMKKRSPEYYKLIDNLFDTYLGKLPEKFTYQGKEYTPKTFAASLGLNMDDYIELTSFTHHPYYQKFEVEVPDNWEHAQMYNLPLNEMMEVADYALNNGYTVCWDGDVSEKGFSFKNGVAINPEVKKVEDYSTTDRARFEKMDEKERLEEVYKFEKPFPEVNVTPQVRQEGFEAFVTTDDHLMHLTGIAKDQNGTKYYITKNSWGTERNTFGGYLNMSDSFVRAKTIYIMVHKDAIPKAIKSKLGI | not soluble |
| MAPKAEKKPSEKAPKADKKITKEGGSERKKKTKKSTETYKIYLFKVLKQVHPDIGISGKAMGIMNSFINDTFEKIALESSRLARYNKKPTITSREIQTAVRLVLPGELAKHAVSEGTKAVTKFTSS | not soluble |
| MGYVGIKIRLTDVAPQAQELFKKESLDVKENKVYLVAATLRPETMYGQTCCFVSPKIDYGVFDAGNGDYFITTERAFKNMSFQNLTPKRGYYKPLFTINGKTLIGSRIDAPYAVNKNLRVLPMETVLATKGTGVVTCVPSDSPDDFVTTRDLANKPEYYGIEKDWVQTDIVPIVHTEKYGDKCAEFLVNDLKIQSPKDSVQLANAKELAYKEGFYNGTMLIGKYKGDKVEDAKPKVKQDLIDEGLAFVYNEPELEHHHHHH | soluble |
| PSPSTEQSAKKVRKKAENAHNTPLLVLYGSNMGTAEGTARDLADIAMSKGFAPQVATLDSHAGNLPREGAVLIVTASYNGHPPDNAKQFVDWLDQASADEVKGVRYSVFGCGDKNWATTYQKVPAFIDETLAAKGAENIADRGEADASDDFEGTYEEWREHMWSDVAAYFNLDIENSEDNKSTLSLQFVDS | soluble |
| MRGLSLSPVVLPEVRREAGVELRKARLEDVDAIYWLIRYWAEKGLMLVRSHSHLYENIRDFWVLEDEDGQIVGTVALHVLWRDLAEIRGLAVHPTRQGQGLGRWLVLGAEREARDLGLPRVFAWTLQVNFFRALGYRVTSR | not soluble |
| MSLILESLVTTLDEQGRINLAPLGPIVLPPQSPGGLPQFLLRPYEGSTTCDNLLASGNAVIHVIDDALLIAKTAIGKVDASDLVVPIPGLEDTHVRLKRCHRWFAVRVTQRAGTPPRHELTARCLASGLVDPFFGFNRAKHAVIEAAVAATRLHLLPPEEIEEELERARIAIEKTGGEPEREALQLIRRHVRESSISEGHHHHHH | soluble |
| SGAAAAEADRTLFVGNLETKVTEELLFELFHQAGPVIKVKIPKDKDGKPKQFAFVNFKHEVSVPYAMNLLNGIRLYGRPIKIQFRSGSSHAPQDVSLSYPQHHVGNSSPTSTSPSRYERTMDNMTSSAQIIQRSFSSPENFQRQAVMNSALRQMSYGGKFGSSPLDQSGFSPSVQSHSHSFNQSSSSQWRQGTPSSQRKVRMNSYPYLADRHYSREQRYTDHGSDHHYRGKRDDFFYEDRNHDDWSHDYDNRRDSSRDGKWRSSRH | soluble |
| MGSDKIHHHHHHMELNEFLDKAYAVLRRLDAVLPPEPGHTDWNALAFRWQSAGKKGFLEHLPDPHTFPLARLAGVGRQTELLVRNTEQFIAGRPANNVLMSGARGTGKSSLVKALLHEYADKGLRLIEVDKSDLIGLPYLLTLLKERPEKFIVFCDDLSFESGDETYKALKTALDGGLSQRCANVLVYATSNRRHLMPEYFDENAGTTGMRGEIHQKEAVEEKISLSDRFGLWLSFYPFDQNDYLAAVQNWLEDFGVPYDETAQMAALQWAQTRGSRSGRSAWQFACDWAGRLPKQRAL | not soluble |
| DVQINIRNNVYIPPCTINNGQNIVVDFGNINPEHVDNSRGEVTKTISISCPYKSGSLWIKVTGNTMGGGQNNVLATNITHFGIALYQGKGMSTPLTLGNGSGNGYRVTAGLDTARSTFTFTSVPFRNGSGILNGGDFRTTASMSMIYN | soluble |
| MGHHHHHHSHVRSPQNQYPAELMRRFELYFQGPSSNKPRVIREVRADSVGKLVTVRGIVTRVSEVKPKMVVATYTCDQCGAETYQPIQSPTFMPLIMCPSQECQTNRSGGRLYLQTRGSRFIKFQEMKMQEHSDQVPVGNIPRSITVLVEGENTRIAQPGDHVSVTGIFLPILRTGFRQVVQGLLSETYLEAHRIVKMNKSEDDESGAGELTREELRQIAEEDFYEKLAASIAPEIYG | soluble |
| MIPLLAFAAWSGTGKTTLLKKLIPALCARGIRPGLIKHTHHDMDVDKPGKDSYELRKAGAAQTIVASQQRWALMTETPDEEELDLQFLASRMDTSKLDLILVEGFKHEEIAKIVLFRDGAGHRPEELVIDRHVIAVASDVPLNLDVALLDINDVEGLADFVVEWMQKQNG | soluble |
| MEIDKEILKRCKKYDRASFSQLFHLYEKYLYNLCYGYTQNTSDAMDLVQEIYIKVFKNIKNFDENLPFHPWVRKISVNTCLNFKRDNRGNVMSLNSKYYDSEFEEEDRLAEDYNMEQEVVNRINNEVVKESIKKLTYDYRMVIMLRYYEDLSYDEIASVLDMPIGTVKTKIYRAKNVLKKSLEKKLEVKK | not soluble |
| MGSDKIHHHHHHMCQRAIANIDISKEYDESMGSNDVHYQSFARMADFFGRDMQAHRHDQFFQMHFLDTGQIELQLDDHRYSVQAPLFVLTPPSVPHAFITESDSDGHVLTVREELVWPLLEVLYPGTREAFGLPGICLSLADKPNELAALKHYWQLIERESTEQLAGCEHTLVLLAQAVFTLLLRNAKLDDHAATGMRGELKLFQRFTLLIDNHFHQHWTVPDYACELHITESRLTDICRRFANRPPKRLIFDRQLREAKRLLLFSDNAVNEIAWQLGFKDPAYFARFFNRLAGCSPSQFRQREVPSFLN | not soluble |
| MAYDIFLKIDGIDGESMDDKHKNEIEVLSWRWNIHQESTMHAGSGLGSGKVSVTNLDFDHYIDRASPNLFKYCASGKHIPQAILVMRKAGGNPLEYLKYTFTDLIVAVVSPSGSHDGEIASRETVELSFSTVKQEYVVQNQQGGSGGTITAGYDFKANKEI | not soluble |
| MNEDAWNKETYSAWVKRFGTPDTAAKKISKDPSKILSVLHEKLGDVKGKKIMNIMGSNGSKAVALALLGADVTVVDFSKGNMDYALDLAKEADVKIDYILSDILKLPEDKLTADYDIVFAEMGIIHYFIDLKPFIKTINRLLKEGGLFVLRDFHPVSTKLITSRGSTAKVRKHKVTGDYFDTSLEEKDAAFSKYLIDNKEPEKVLLRKWTLGEIVTSVAEGGFKIKKLDEEPNLSCDNFDKGIPKSFTLTSEKLSLEHHHHHH | soluble |
| MGSDKIHHHHHHMSEEQKTISISELESMNIKQLYEIAKSLGIPRYTSMRKRDLIFAILKAQTESTGYFFGEGVLEIHPEGFGFLRRIEDNLLPSNDDIYISPSQIRKFNLNTGDIISGVIRKPKEGEKYFAMIKIEAINYRPVEAVNDRVNFDNLTPDYPRERFILETDPKIYSTRLIDLFAPIGKGQRGMIVAPPKAGKTTILKEIANGIAENHPDTIRIILLIDERPEEVTDIRESTNAIVIAAPFDMPPDKQVKVAELTLEMAKRLVEFNYDVVILLDSLTRLARVYNIVVPPSGKLLTGGVDPAALYKPKRFFGAARNTREGGSLTIIATALVETGSKMDEVIFEEFKGTGNMELVLSRQLANKRIFPAINLLLSGTRREELLLDEETLKKVWLLRRMLSAMTEEEGLTLILNKLSETSSNEEFLKLIDKEKARY | not soluble |
| MVCDFSQVRLRLADDGWRGTTTRREKDDAEDVEGKVTLRLRYTKTGAMRFLSHLEMIGLFTRAVGRSRIPIRFSRGFHPHPKFSFATALSVGVESWAEYLDMELFPGADPTDIGTRLNGALPEGVRIVEASVIPPGSPSLSVIMDKVRYRVTLPPEAAVGLPELAAAFLARESVPLRREKKGRVLEHHHHHH | not soluble |
| MGSDKIHHHHHHMSADTLFPKLDIPATIAAGPGPGNTDARVLAAFSGAGLADHMHGDVLRGMVECKLMLRRIWGTDNIHTFGVAGTGWSGLDVMFSAVMPGDKVVVFTNGTFSGIDGLTVRMKAATAEELAANPLDPRPASVVIVDIPHGQSVTGEIVETALAEHKPKWAAMAHWETGSGRINDIAGFSAACERHDVMGLVDAVSSLGVEDFRIDDFPGVHGWASCPQKGICCLPLTYAPVSFTDRYIQTLRATGTRSFVHHPILEARHWGVIEGKDVDKGTYHRTHSAYAVAAFHEALRITLQQGVANRAKDYAYHEAALRRAVEALGCEVTSNMTSLVVLNLPGDLRGREMELVQNCRARNFGIWPTLSAPVQVRIGILNLLSRAAVTDIVTRFAEAIRELGGAGDEATALAALDAHYDNAIAAE | not soluble |
| RRNALELEVFAGQEKSELSMIEVARAILELRGRDHEMHFSDLVNEIQNYLGTSNSDIREALPLFYTELNFDGSFISLGDNKWGLRSWYGVDEIDEEIIALEENDDDEVAPKAKKKRVNAFMDGDSDAIDYNADDPEDEDAYEADPALSYDDENPDDEKNEVEAYDAEINEIAPDDLGEDVDLNEDDDEFSDDDAET | not soluble |
| MPSYKLSYFPVRGLAESARLLFHLAGVPFEDERVNFLDDTWEKMKGKTPMGQLPVLTVDDFEIPQSAAINRYLARKFGFAGKTPEEEAWVDAVVDQFKDFFAEFRKLVIAKRVGKSAEELEKLTAEVIKPAMDVYFKVLNGLLEKSKSGYLIGDSITFADLYIADNIQTLKKYGLLEASGEQPKLAAHLEKVYSHPNLKSYIASRPVTEI | not soluble |
